Where two headings read alike, the source gives them in different places.
Experiments:
[1] = biological target: recombinant Simukunin (rSV-66) (Simulium vittatum) (UniProt B5M0W4); assay: SPR; kinetics: rSimukunin immobilised on a CM5 chip by amine coupling (475.3 RU); FXa 3.1-50 nM or elastase 0.45-3.75 nM injected for 180 s at 30 µl/minute, 25°C; HBS-P (10 mM Hepes pH 7.4, 150 mM NaCl, 0.005% P20); global fit to a 1:1 Langmuir model
[2] = biological target: thrombin (UniProt P00734); conditions: cited from earlier work
[3] = biological target: Factor Xa (FXa) (Homo sapiens) (UniProt P00742); conditions: cited from earlier work
[4] = biological target: Factor X (FX) (Homo sapiens) (UniProt P00742); conditions: cited from earlier work
[5] = biological target: Factor X (Homo sapiens) (UniProt P00742); conditions: cited from earlier work
[6] = biological target: Factor Xa (Homo sapiens) (UniProt P00742); conditions: cited from earlier work
[7] = biological target: thrombin (UniProt P00734); conditions: cited from earlier work; remark: listed apart in the source

recombinant Simukunin (rSV-66) (Simulium vittatum), sequence (B5M0W4 20-102): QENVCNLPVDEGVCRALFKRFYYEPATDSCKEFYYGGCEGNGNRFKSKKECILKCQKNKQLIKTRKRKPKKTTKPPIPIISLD
ixolaris, sequence (Q964Q0 27-165): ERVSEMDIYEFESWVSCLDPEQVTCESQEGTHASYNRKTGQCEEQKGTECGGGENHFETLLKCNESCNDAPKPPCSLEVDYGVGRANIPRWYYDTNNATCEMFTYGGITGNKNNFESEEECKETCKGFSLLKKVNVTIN
Factor X (Homo sapiens), sequence (P00742 41-179): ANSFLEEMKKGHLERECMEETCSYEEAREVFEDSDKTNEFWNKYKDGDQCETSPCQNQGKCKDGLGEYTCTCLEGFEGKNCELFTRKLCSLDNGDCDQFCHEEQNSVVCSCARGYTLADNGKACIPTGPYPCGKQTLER
Factor X (FX) (Homo sapiens), sequence (P00742 41-179, chain 1 of 2): as the sequence (P00742 41-179) above
Factor X (FX) (Homo sapiens), sequence (P00742 183-488, chain 2 of 2): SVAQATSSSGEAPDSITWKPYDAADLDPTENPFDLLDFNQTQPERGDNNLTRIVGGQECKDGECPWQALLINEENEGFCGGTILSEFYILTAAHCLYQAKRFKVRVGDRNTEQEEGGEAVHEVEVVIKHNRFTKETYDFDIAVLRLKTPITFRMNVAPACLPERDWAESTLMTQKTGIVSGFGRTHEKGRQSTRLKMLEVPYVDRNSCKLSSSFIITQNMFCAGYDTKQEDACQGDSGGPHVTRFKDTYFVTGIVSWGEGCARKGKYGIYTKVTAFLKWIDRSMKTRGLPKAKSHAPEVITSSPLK
Factor Xa (FXa) (Homo sapiens), sequence (P00742 41-179, chain 1 of 2): as the sequence (P00742 41-179) above
Factor Xa (FXa) (Homo sapiens), sequence (P00742 235-488, chain 2 of 2): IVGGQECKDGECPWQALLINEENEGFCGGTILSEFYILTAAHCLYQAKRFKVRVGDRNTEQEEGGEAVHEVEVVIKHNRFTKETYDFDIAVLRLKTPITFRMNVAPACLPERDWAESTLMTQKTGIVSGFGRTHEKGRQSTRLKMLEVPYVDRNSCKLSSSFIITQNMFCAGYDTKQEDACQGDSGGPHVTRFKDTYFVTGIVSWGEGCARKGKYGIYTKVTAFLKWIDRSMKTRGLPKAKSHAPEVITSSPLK
Factor Xa (Homo sapiens), sequence (P00742 235-488): as the sequence (P00742 235-488, chain 2 of 2) above
amblin, sequence (Q5VJG2 16-166): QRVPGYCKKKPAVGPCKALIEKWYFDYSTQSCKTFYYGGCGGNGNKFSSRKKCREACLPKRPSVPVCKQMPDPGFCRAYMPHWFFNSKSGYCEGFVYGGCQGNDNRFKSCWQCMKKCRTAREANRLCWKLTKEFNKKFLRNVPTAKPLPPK
ornithodorin, sequence (P56409 whole entry): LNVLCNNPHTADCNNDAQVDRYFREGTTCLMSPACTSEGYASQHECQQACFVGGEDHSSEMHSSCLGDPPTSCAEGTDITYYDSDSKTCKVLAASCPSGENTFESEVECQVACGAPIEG

activated coagulation factor X (FXa), human (enzyme)
Kd [1]: 3.07 nM
koff [1]: 0.000303 s⁻¹
kon [1]: 98700 M⁻¹ s⁻¹

amblin (from UniProt Q5VJG2)
Ki [2]: 20 nM

ixolaris (from UniProt Q964Q0)
Kd [3]: 0.25 nM
Kd [4]: 0.67 nM
Kd [5]: 0.67 nM
Kd [6]: 0.25 nM

ornithodorin (from UniProt P56409)
Ki [7]: 0.001 nM

— PMC3285612
